Experimental data from US20180037644A1 (Pfizer, published 2018).

Assays:
human IL-33 (mm2) [1] = target: T1, human IL-33 (mm2) (human, UniProt O95760 112-270); test: SPR, Fab captured by anti-human Fab kit, IL-33 in solution
T1 construct: Variant in which all four cysteine residues are serine; the entry carries an N-terminal Met and a C-terminal His6; Biotinylated in some assays; also called hIL-33 (mm2); huIL-33 (mm2)
T1 chain: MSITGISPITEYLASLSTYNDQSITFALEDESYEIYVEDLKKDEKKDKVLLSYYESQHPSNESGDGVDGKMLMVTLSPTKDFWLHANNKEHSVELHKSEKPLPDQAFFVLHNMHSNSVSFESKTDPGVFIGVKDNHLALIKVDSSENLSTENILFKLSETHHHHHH
Method: (§1) Fab fragment affinity was measured by two methods, surface plasmon resonance using a BIAcore instrument, with either Fab or IL-33 captured on the chip, and solution equilibrium affinity measurements using a KinExA instrument, with both Fab and IL-33 in solution.
(§2) Surface plasmon resonance experiments were conducted in two formats.

IL-1β = IL-1β (UniProt P01584 117-269); test: SPR (Biacore T200), Fab captured on the chip, cytokine injected
Source text: (§3) The panel of cytokines included IL-1α, IL-1β, IL-18, IL-36α, and IL-36γ.

IL-1α = target: T2, IL-1α (UniProt P01583 113-271); test: as above
T2 sequence (looked up): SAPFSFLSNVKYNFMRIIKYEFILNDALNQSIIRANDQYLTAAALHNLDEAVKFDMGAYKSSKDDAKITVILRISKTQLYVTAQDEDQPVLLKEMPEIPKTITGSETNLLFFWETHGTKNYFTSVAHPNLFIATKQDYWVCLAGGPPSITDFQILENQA
Source text: as §3

human IL-33 (mm2) [2] = target: T1, human IL-33 (mm2); test: KinExA, fixed-antigen format, both partners in solution
Method: (§4) HuIL33 wt was reduced in 3 mM DTT for a minimum of two hrs prior to use. Affinity determinations were made at room temperature using the fixed antigen assay format. Equilibrium binding was achieved by incubation at 25° C. for 72 hrs. Data analysis was performed with the KinExA Pro software version 3.6.5 (Sapidyne). […] The “drift correction” was used when appropriate. Multiple curves were obtained, both receptor and KD controlled, in independent experiments and analyzed using the “n-curve analysis” tool to obtain global best fit values for the KD and active concentration. The software reports each best fit value along with a 95% confidence interval.
(§5) Table 13. Affinity determinations were made using the fixed-antigen assay format. […] The 95% confidence interval, shown in parentheses with the kD, and percent error are calculated by KinExA software based on a least-squares fit of the theoretical binding equation to the measured signals.

[3] = target: T3, human IL-33 WT, reduced with DTT (human, UniProt O95760 112-270); test: as above
T3 construct: Wild-type cysteines, FLAG tag in the entry; reduced with 3 mM DTT before use; also called huIL33 wt; hu IL-33 (WT + DTT)
T3 sequence: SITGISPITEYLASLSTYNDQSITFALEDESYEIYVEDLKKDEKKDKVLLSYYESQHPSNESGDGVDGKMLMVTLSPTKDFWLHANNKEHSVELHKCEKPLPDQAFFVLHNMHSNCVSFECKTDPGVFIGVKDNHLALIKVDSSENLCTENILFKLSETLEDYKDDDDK
Method: as §4, §5

human IL-33 WT (R&D) = target: T4, human IL-33 WT (R&D) (human, UniProt O95760 112-270); test: SPR, Fab captured by anti-human Fab kit, reduced IL-33 (R&D) in solution
T4 construct: R&D Systems Cat. No. 3625-IL/CF, wild-type cysteines; DTT pretreatment in some assays is said under assay or readout; also called IL-33 (R&D); hIL-33 (R&D)
T4 sequence: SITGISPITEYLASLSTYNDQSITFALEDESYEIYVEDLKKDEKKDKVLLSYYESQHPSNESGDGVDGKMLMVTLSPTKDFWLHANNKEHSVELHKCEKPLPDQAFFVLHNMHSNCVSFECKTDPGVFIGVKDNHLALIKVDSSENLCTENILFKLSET
Method: as §1, §2

human IL-33 (mm2) [4] = target: T1, human IL-33 (mm2); test: SPR, IL-33 amine-coupled to CM5, Fab in solution, 37 C
Method: (§6) Biacore kinetic assays were conducted at 37° C. at a collection rate of 1 Hz on a Biacore T200 instrument (GE Healthcare). Human IL33 (mm2), cynomolgus monkey IL-33, and reduced huIL33 wt were covalently coupled to a CM5 sensor chip (catalogue number BR100530, GE Healthcare) using an amine coupling kit (catalogue number BR100050, GE Healthcare) according to the manufacturer's protocol. […] The dilution and running buffer was HBS-EP+(10 mM HEPES pH 7.4, 0.15M NaCl, 3 mM EDTA, 0.05% P-20). Rate constants and affinities were determined by fitting the resulting sensorgram data to a 1:1 model in Biacore T200 Evaluation software version 1.0 (GE Healthcare).

[5] = target: T3, human IL-33 WT, reduced with DTT; test: as above
Method: as §6

[6] = target: T5, cynomolgus monkey IL-33 (cys mut) (cynomolgus monkey); test: as above
T5 construct: Variant in which the three cysteine residues are serine; N-terminal Met and C-terminal His6 in the entry; also called cyno IL-33; cyno IL-33 (cys mut)
T5 chain: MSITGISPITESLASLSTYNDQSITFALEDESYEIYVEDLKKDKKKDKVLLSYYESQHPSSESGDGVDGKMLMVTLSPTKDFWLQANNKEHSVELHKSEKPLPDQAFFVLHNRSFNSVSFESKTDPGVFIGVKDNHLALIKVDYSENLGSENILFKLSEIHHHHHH
Method: as §6

human IL-33 (mm2) [7] = target: T1, human IL-33 (mm2); test: SPR, biotinylated IL-33 on streptavidin sensor, Fab in solution; immobilized IL-33 (mm2); Fab in solution
Method: as §2

Kd (human IL-33 (mm2) [1]): 250 pM
koff (human IL-33 (mm2) [1]): 0.000301 s⁻¹
kon (human IL-33 (mm2) [1]): 1.38e+06 M⁻¹ s⁻¹
binding result (IL-1β): no binding
binding result (IL-1α): no binding
Kd (human IL-33 (mm2) [2]): 0.351 pM
Kd [3]: 4.04 pM
Kd (human IL-33 WT (R&D)): 290 pM
koff (human IL-33 WT (R&D)): 0.000377 s⁻¹
Kd (human IL-33 (mm2) [4]): 15.5 pM
koff (human IL-33 (mm2) [4]): 4.17e-05 s⁻¹
kon (human IL-33 (mm2) [4]): 2.74e+06 M⁻¹ s⁻¹
Kd [5]: 19.1 pM
koff [5]: 5.79e-05 s⁻¹
kon [5]: 3.05e+06 M⁻¹ s⁻¹
Kd [6]: 14.4 pM
koff [6]: 4.07e-05 s⁻¹
kon [6]: 2.81e+06 M⁻¹ s⁻¹
kon (human IL-33 (mm2) [7]): 5.47e+06 M⁻¹ s⁻¹
B1: 7E8 CDR graft Fab (Fab, V domains shown)
VH: EVQLVESGGGLVQPGGSLRLSCAASGFTFSSYWMYWVRQAPGKGLEWVASITPNGGNTYYPDSVKGRFTISRDNAKNSLYLQMNSLRAEDTAVYYCARGHYYYTSYSLGYWGQGTLVTVSS
VL: DIQMTQSPSSLSASVGDRVTITCKASQNINKHLDWYQQKPGKAPKLLIYFTNNLQTGVPSRFSGSGSGTDFTLTISSLQPEDFATYYCFQYNNGWTFGGGTKVEIKR
notes: also called 7E8 Fab; CDR grafted-7E8 Fab
